Laboratory results as given in patent US20080008651A1, “Screening Methods and Transgenic Animals for the Treatment of Beta-Globin Related Disease and Conditions” (THE REGENTS OF THE UNIVERSITY OF MICHIGAN, published 2008).

T1: DRED complex (TR2/TR4 heterodimer DNA-binding core) (Mus musculus, UniProt Q505F1;P49117 Q505F1:1-590,P49117:1-596)
T1 sequence 1: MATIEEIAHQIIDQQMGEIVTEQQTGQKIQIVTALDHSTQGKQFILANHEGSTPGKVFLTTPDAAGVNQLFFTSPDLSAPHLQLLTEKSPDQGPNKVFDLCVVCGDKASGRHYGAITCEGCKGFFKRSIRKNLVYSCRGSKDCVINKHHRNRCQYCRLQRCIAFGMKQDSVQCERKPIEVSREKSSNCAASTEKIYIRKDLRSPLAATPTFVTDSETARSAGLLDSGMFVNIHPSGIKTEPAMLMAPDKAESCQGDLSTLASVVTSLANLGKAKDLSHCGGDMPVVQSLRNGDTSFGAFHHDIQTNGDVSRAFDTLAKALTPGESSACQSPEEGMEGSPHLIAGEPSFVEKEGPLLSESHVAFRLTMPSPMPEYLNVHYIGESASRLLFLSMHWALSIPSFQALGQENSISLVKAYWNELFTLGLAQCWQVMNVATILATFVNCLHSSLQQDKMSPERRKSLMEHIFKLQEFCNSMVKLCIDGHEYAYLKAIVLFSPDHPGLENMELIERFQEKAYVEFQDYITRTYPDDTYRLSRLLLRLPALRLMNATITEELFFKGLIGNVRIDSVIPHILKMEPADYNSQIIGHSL
T1 sequence 2: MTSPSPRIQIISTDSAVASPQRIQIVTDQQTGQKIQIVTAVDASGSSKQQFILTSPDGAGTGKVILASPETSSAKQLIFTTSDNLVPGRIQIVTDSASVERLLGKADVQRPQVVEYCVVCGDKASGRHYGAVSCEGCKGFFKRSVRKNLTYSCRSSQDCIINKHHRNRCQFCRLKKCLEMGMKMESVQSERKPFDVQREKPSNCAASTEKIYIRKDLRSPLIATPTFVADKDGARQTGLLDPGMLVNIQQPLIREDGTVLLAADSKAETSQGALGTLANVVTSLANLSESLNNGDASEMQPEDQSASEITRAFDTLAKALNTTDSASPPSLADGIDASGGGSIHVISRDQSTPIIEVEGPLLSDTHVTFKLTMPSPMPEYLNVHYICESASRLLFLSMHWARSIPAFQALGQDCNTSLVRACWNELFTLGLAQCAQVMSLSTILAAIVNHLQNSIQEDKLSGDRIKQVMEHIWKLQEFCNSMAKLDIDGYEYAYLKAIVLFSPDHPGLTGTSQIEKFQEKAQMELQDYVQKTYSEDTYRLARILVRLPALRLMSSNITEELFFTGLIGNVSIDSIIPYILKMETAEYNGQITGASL

T2: mouse TR4 orphan nuclear receptor, Flag-tagged at the amino terminus, wild type (mouse, UniProt P49117 1-596)
T2 construct: also called wild type TR4; not shown: Flag tag at the amino terminus
T2 sequence (looked up): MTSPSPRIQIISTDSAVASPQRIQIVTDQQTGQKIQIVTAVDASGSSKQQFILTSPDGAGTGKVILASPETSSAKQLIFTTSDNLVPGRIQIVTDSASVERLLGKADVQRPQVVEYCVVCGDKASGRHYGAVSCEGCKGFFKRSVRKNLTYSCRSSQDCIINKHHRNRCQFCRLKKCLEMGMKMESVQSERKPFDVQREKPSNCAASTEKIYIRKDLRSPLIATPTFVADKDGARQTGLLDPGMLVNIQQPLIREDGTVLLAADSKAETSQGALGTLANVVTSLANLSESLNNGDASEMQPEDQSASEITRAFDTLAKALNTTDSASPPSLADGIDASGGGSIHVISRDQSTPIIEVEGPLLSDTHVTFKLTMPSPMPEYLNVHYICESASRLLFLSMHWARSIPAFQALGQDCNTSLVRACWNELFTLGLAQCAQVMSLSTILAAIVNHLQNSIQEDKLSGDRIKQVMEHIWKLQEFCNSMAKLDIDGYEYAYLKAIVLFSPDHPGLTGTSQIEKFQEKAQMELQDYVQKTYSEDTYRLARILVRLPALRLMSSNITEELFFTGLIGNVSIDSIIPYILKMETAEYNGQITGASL


Legend:
[1] = target: TR4 coexpressed with dnTR2 dnTR2 chain: three Lys/Arg to Glu in DNA binding domain (Mus musculus) (UniProt P49117+Q505F1); experiment: EMSA; conditions: TR4 binding diminished by about 80% (TR4 alone = 100%)
[2] = target: TR4 coexpressed with dnTR4 dnTR4 chain: three Lys/Arg to Glu in DNA binding domain (Mus musculus) (UniProt P49117+P49117); experiment: EMSA; conditions: TR4 binding diminished by about 80% (TR4 alone = 100%)
[3] = target: T1, DRED complex (TR2/TR4 heterodimer …); experiment: competition; EMSA competition vs 1.1 nM 32P epsilon distal DR probe; judged too low for functional association; conditions: protein: extract; tags: native, MEL mouse erythroleukemia cell nuclear extract; blunt ended
Procedure: (§1) Electrophoretic Gel Mobility Shift Assay (EMSA). Nuclear extracts preparation, binding reactions, and electrophoresis were performed as described previously (Tanimoto et al., 2000). The following blunt ended oligonucleotides were used as probes or competitors in EMSA (only sense strands are shown): ε distal DR, 5′-[…]-3′ (SEQ ID NO: 19); ε proximal DR, 5′-[…]-3′ (SEQ ID NO: 20); γ DR, 5′-[…]-3′ (SEQ ID NO: 21); β, 5′-[…]-3′ (SEQ ID NO: 22); εy distal DR, 5′-[…]-3′ (SEQ ID NO: 23); εy proximal DR, 5′-[…]-3′ (SEQ ID NO: 24); βh1 DR, 5′-[…]-3′ (SEQ ID NO: 25); β^major, 5′-[…]-3′ (SEQ ID NO: 26).
(§2) Free and bound ³²P-labeled probe was quantified on a PhosphoImager. The competitive binding experiments were then performed using 1.1 nM ³²P-labeled ε distal DR probe and 70 pM to 2 μM of each competitor double-strand oligonucleotide to determine the 50% inhibitory concentration (IC₅₀). The equilibrium dissociation constant (Ki) for each competitor was then determined by the following equation (Cheng and Prusoff, 1973): […]

[4] = target: T1, DRED complex (TR2/TR4 heterodimer …); experiment: competition; EMSA competition vs 1.1 nM 32P epsilon distal DR probe; conditions: protein: extract; tags: native, MEL mouse erythroleukemia cell nuclear extract; blunt ended
Procedure: as §1, §2

[5] = target: T2, mouse TR4 orphan nuclear receptor, …; experiment: EMSA of nuclear extracts of co-transfected 293T cells on the ε distal DR probe; heterodimer inferred
Procedure: 20 μg of expression plasmid was mixed with 40 μl of lipofectamine 2000 (Invitrogen) and then added to each dish according to the manufacturer's instruction. Forty-eight hours after transfection, cells were harvested and nuclear extracts were prepared.
as §1
After transfection, nuclear extracts were prepared and examined for binding to the ε distal-DR element by EMSA (FIG. 1C). […] When TR2 and TR4 were coexpressed to generate TR2/TR4 heterodimers (Tanabe et al., 2002), generated an even more intense signal.

[6] = target: T1, DRED complex (TR2/TR4 heterodimer …); experiment: competition; EMSA competition vs 1.1 nM 32P epsilon distal DR probe; unlabeled competitor; conditions: protein: extract; tags: native, MEL mouse erythroleukemia cell nuclear extract; label: 32P (probe); blunt ended
Procedure: as §1, §2

[7] = target: T1, DRED complex (TR2/TR4 heterodimer …); experiment: EMSA; saturation binding, MEL nuclear extract; conditions: protein: extract; tags: native, MEL mouse erythroleukemia cell nuclear extract; label: 32P (probe); blunt ended
Procedure: as §1, §2

| Molecule | Ki [3] [nM] | Ki [4] [nM] | further results |
| --- | --- | --- | --- |
| CCCTGAGGACACAGGTCAGCCTTG (double strand) [epsilon distal DR] |  |  | binding signal [1]: 20%; binding signal [2]: 20% |
| beta (dsDNA) DNA 1: TAGGGTTGGCCAATCTACTCCC DNA 2: GGGAGTAGATTGGCCAACCCTA | 420 |  |  |
| beta-h1 DR (dsDNA) DNA 1: CCCAGACTCTCTTGACCAATAGCCTCAGAGTCCT DNA 2: AGGACTCTGAGGCTATTGGTCAAGAGAGTCTGGG |  | 18 |  |
| mouse TR2 orphan nuclear receptor, Flag-tagged at the amino terminus, wild type (receptor, UniProt Q505F1 1-590, looked up, also called wild type TR2; not shown: Flag tag at the amino terminus) MATIEEIAHQIIDQQMGEIVTEQQTGQKIQIVTALDHSTQGKQFILANHEGSTPGKVFLTTPDAAGVNQLFFTSPDLSAPHLQLLTEKSPDQGPNKVFDLCVVCGDKASGRHYGAITCEGCKGFFKRSIRKNLVYSCRGSKDCVINKHHRNRCQYCRLQRCIAFGMKQDSVQCERKPIEVSREKSSNCAASTEKIYIRKDLRSPLAATPTFVTDSETARSAGLLDSGMFVNIHPSGIKTEPAMLMAPDKAESCQGDLSTLASVVTSLANLGKAKDLSHCGGDMPVVQSLRNGDTSFGAFHHDIQTNGDVSRAFDTLAKALTPGESSACQSPEEGMEGSPHLIAGEPSFVEKEGPLLSESHVAFRLTMPSPMPEYLNVHYIGESASRLLFLSMHWALSIPSFQALGQENSISLVKAYWNELFTLGLAQCWQVMNVATILATFVNCLHSSLQQDKMSPERRKSLMEHIFKLQEFCNSMVKLCIDGHEYAYLKAIVLFSPDHPGLENMELIERFQEKAYVEFQDYITRTYPDDTYRLSRLLLRLPALRLMNATITEELFFKGLIGNVRIDSVIPHILKMEPADYNSQIIGHSL |  |  | binding result [5]: binds |
| gamma DR (dsDNA) DNA 1: GCCTTGCCTTGACCAATAGCCTTGACAA DNA 2: TTGTCAAGGCTATTGGTCAAGGCAAGGC |  | 13 |  |
| epsilon-y distal DR (dsDNA) DNA 1: CCATGAGGACCACGGGTCAGGCTGA DNA 2: TCAGCCTGACCCGTGGTCCTCATGG |  | 4.1 |  |
| epsilon proximal DR (dsDNA) DNA 1: CAGCCTTGACCAATGACTTTTA DNA 2: TAAAAGTCATTGGTCAAGGCTG |  | 2.8 |  |
| beta-major (dsDNA) DNA 1: TGGTAAGGGCCAATCTGCTCACA DNA 2: TGTGAGCAGATTGGCCCTTACCA | 170 |  |  |
| epsilon-y proximal DR (dsDNA) DNA 1: TCAGGCTGACCAATGGCTTCAAA DNA 2: TTTGAAGCCATTGGTCAGCCTGA | 59 |  |  |
| epsilon distal DR (dsDNA) DNA 1: CCCTGAGGACACAGGTCAGCCTTG DNA 2: CAAGGCTGACCTGTGTCCTCAGGG |  |  | Ki [6]: 0.97 nM; Kd [7]: 0.56 nM |
